Test results published in PMC11247618 (Immunity, 2024).

B1: hcab55 Fab (Fab, V domains shown)
VH: QVQLVQSGAEIKKPGASVKVSCKASGYTFISNYFHWVRQAPGQGLEWMGIINPSSGSTTYGQKFQGRVTLTSDTSASIVYLELSRLRSEDTAVYYCVSPRIAHCRGGRCYETLDWGQGTLVTVSS
VL: EIVLTQSPVSLSLSPGERATLSCRASQSVSSNYLAWYQLKPGRAPRLLIYGASSRAPGIPDRFSGSGSGTDFTLTISRLEPEDFAVYYCQQYGISSWTFGQGTKVEIK
B2: hcab64 Fab (Fab, V domains shown)
VH: QVQLVQSGAEIQKPGASVKVSCRASGYTYISTSFHWVRQAPGQGLEWMGVIKTDDGSTSDTQKFQGRLRMTWDTSTSTVYMELSSLRSDDTAVYYCVSPRLGHCRRGRCYETLDWGQGSLVTVSS
VL: EIVLTQSPGTLSLSPGERATLSCRASQSVSSSYLAWYQQKPGQAPRLLVYGASTRATGIPDRFSGSGSGTDFTLTISRLEPEDFAVYYCHQYSSSFWTFGQGTKVEIK
B3: hcab40 Fab (Fab, V domains shown)
VH: QVQLQQWGAGLLKPSESLSLTCVVYGGSFSGYYWSWIRQPPGKGLEWIGEINPTGSTNYNPSLNSRVTISVDRSKNHLSLKLSSVTAADTAVYFCARFLPPDYDLLTDYFDPPGAFDIWGQGTMVTVSS
VL: DIHMTQSPFSLSASVGDRVTITCRASQSISGWLAWYQQKVGNAPKLLIYKASSLESGVPSRFSGSGSGTEFTLSISSLQPDDFATYYCQQYNSYPFTFGPGTKVDMK
B4: hcab17 Fab (Fab, V domains shown)
VH: QVQLNQWGAGLLKPSETLSLTCAVYGDAFSGNYWSWIRQPPGKGLQWIGEINHSGNTNYDPSLESRVSISLDTSKNQLSLKLNSVTAADTALYYCARGQRNCSGGNCYSGLWAWGQGTLVTVSS
VL: AIHMTQSPFSLSASVGDRVTITCRASQGIRNDLAWYQHKPGTAPKVLIYAASSLQDGVSSRFSGSGSGTLFTLTISSLQPEDFATYYCLQGYNYPRTFGQGTKVEMK

target: 1b09 HCV E2 ectodomain (E2ecto) (Hepatitis C virus genotype 1b, strain …, strain); assay: crystal structure

Binder | binding result
B1 | binds
B2 | binds
B3 | binds
B4 | binds
